The record followed here is paper PMC8623809.

For test [1], the target named is porcine gastric mucin (PGM), Sigma Type III. The test can be described thus: Intrinsic tryptophan fluorescence quenching (excitation 280 nm, emission maximum 326 nm), Stern-Volmer analysis. The note with it: 100 mM PBS (composition not further stated), 100 mM PBS adjusted with HCl to pH 7, 5 and 3 (same buffer at all pH values).
In test [2] the target is bovine submaxillary mucin (BSM), Sigma Type I-S. The test is described as above. The note with it: 100 mM PBS (composition not further stated), 100 mM PBS adjusted with HCl to pH 7, 5 and 3 (same buffer at all pH values).

For beta-lactoglobulin (BLG), the Ksv (Stern-Volmer constant, static quenching) (not printed (uM^-1 inferred)) in test [1] (pH 3) worked out at 1.25; in test [1] (pH 5), 0.92; in test [1] (pH 7), 1.08; in test [2] (pH 3), 0.19; in test [2] (pH 5), 0.15; in test [2] (pH 7), 0.23.
